Measured values: patent publication US20160263155A1, “T CELL RECEPTORS DIRECTED AGAINST THE PREFERENTIALLY EXPRESSED ANTIGEN OF MELANOMA AND USES THEREOF” (LEIDEN UNIVERSITY MEDICAL CENTER, priority 2015, published 2016)
Changes are numbered by the printed parent chain. Names and notes keep the numbering of the source.

B1: D330A (protein)
chain: GFGDVGALESLRGNADLAYILSMEPCGHCLIINNVNFCRESGLRTRTGSNIDCEKLRRRFSSLHFMVEVKGDLTAKKMVLALLELAQQDHGALDCCVVVILSHGCQASHLQFPGAVYGTDGCPVSVEKIVNIFNGTSCPSLGGKPKLFFIQACGGEQKDHGFEVASTSPEDESPGSNPEPDATPFQEGLRTFDQLAAISSLPTPSDIFVSYSTFPGFVSWRDPKSGSWYVETLDDIFEQWAHSEDLQSLLLRVANAVSVKGIYKQMPGCFNFLRKKLFFKTS
B2: T317E (protein)
chain: B1 chain with T183E, A196D
B3: D330E (protein)
chain: B1 chain with A196E
B4: F406T (protein)
chain: B1 chain with A196D, F272T
B5: F319W (protein)
chain: B1 chain with F185W, A196D
B6: D330A-N405T (protein)
chain: B1 chain with N271T
B7: N405A (protein)
chain: B1 chain with A196D, N271A
B8: N405F (protein)
chain: B1 chain with A196D, N271F
B9: D315A (protein)
chain: B1 chain with D181A, A196D
B10: L329K (protein)
chain: B1 chain with L195K, A196D
B11: Q328R (protein)
chain: B1 chain with Q194R, A196D
B12: N405T (protein)
chain: B1 chain with A196D, N271T
B13: D327R (protein)
chain: B1 chain with D193R, A196D
B14: F326K (protein)
chain: B1 chain with F192K, A196D
B15: F404W (protein)
chain: B1 chain with A196D, F270W
B16: Y153A (protein)
chain: B1 chain with Y19A, A196D
B17: P318A (protein)
chain: B1 chain with P184A, A196D
B18: F404T (protein)
chain: B1 chain with A196D, F270T
B19: T317C (protein)
chain: B1 chain with T183C, A196D
B20: Y153F (protein)
chain: B1 chain with Y19F, A196D
B21: F319A (protein)
chain: B1 chain with F185A, A196D
B22: C403T (protein)
chain: B1 chain with A196D, C269T
B23: S307A (protein)
chain: B1 chain with S173A, A196D
B24: D327K (protein)
chain: B1 chain with D193K, A196D
B25: L329G (protein)
chain: B1 chain with L195G, A196D
B26: C403S (protein)
chain: B1 chain with A196D, C269S
B27: A316G (protein)
chain: B1 chain with A182G, A196D
B28: A331K (protein)
chain: B1 chain with A196D, A197K
B29: Q328K (protein)
chain: B1 chain with Q194K, A196D
B30: C403A (protein)
chain: B1 chain with A196D, C269A
B31: D327G (protein)
chain: B1 chain with D193G, A196D
B32: N405Qco: Caspase-9 mutant (protein, UniProt P55211 1-416, looked up, variant N405Q)
chain: MDEADRRLLRRCRLRLVEELQVDQLWDALLSRELFRPHMIEDIQRAGSGSRRDQARQLIIDLETRGSQALPLFISCLEDTGQDMLASFLRTNRQAAKLSKPTLENLTPVVLRPEIRKPEVLRPETPRPVDIGSGGFGDVGALESLRGNADLAYILSMEPCGHCLIINNVNFCRESGLRTRTGSNIDCEKLRRRFSSLHFMVEVKGDLTAKKMVLALLELAQQDHGALDCCVVVILSHGCQASHLQFPGAVYGTDGCPVSVEKIVNIFNGTSCPSLGGKPKLFFIQACGGEQKDHGFEVASTSPEDESPGSNPEPDATPFQEGLRTFDQLDAISSLPTPSDIFVSYSTFPGFVSWRDPKSGSWYVETLDDIFEQWAHSEDLQSLLLRVANAVSVKGIYKQMPGCFQFLRKKLFFKTS
modifications: codon-optimized
notes: Caspase-9 mutant
B33: ^402GCFNF^406AAAAA: Caspase-9 homodimerization domain mutant (SEQ ID NOS 95 and 99) (protein, UniProt P55211 1-416, looked up, variant G402A C403A F404A N405A F406A)
chain: B32 chain with G402A, C403A, F404A, Q405A, F406A
B34: ^316ATPF^319AVPI: Caspase-9 mutant (SEQ ID NOS 97 and 98) (SMAC/Diablo) (protein, UniProt P55211 1-416, looked up, variant T317V F319I)
chain: B32 chain with T317V, F319I, Q405N

system: chimeric Caspase-9 polypeptide; assay: Caspase mutant classes and basal activity (Table 3); assay type: cell-based, human; details: class heading of Table 3
Sequence (as listed by the source, change not shown): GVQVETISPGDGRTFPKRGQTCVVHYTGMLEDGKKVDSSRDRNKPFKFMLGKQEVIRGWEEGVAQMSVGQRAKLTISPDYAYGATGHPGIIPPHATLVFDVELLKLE

Molecule | Basal Activity
B1 | Decreased
B2 | Increased
B3 | Decreased
B4 | Decreased
B5 | Decreased
B6 | Increased
B7 | Similar
B8 | Decreased
B9 | Decreased
B10 | Increased
B11 | Increased
B12 | Increased
B13 | Increased
B14 | Increased
B15 | Decreased
B16 | Decreased
B17 | Similar

Molecule | Basal Activity
B18 | Decreased
B19 | Similar
B20 | Decreased
B21 | Similar
B22 | Similar
B23 | Decreased
B24 | Increased
B25 | Increased
B26 | Similar
B27 | Decreased
B28 | Increased
B29 | Increased
B30 | Similar
B31 | Increased
B32 | Decreased
B33 | dead
B34 | Similar

same assay, conditions: class heading of Table 3; ligand IC50

Molecule | IC50
B1 | higher IC50
B3 | higher IC50
B4 | much higher
B5 | much higher
B7 | Similar
B8 | much higher
B9 | much higher
B15 | much higher
B16 | much higher
B17 | Similar
B18 | much higher
B19 | Similar
B20 | much higher
B21 | Similar
B22 | Similar
B23 | much higher
B26 | Similar
B27 | much higher
B30 | Similar
B32 | higher IC50
B34 | Similar
